# Measurements from IntAct's records for PubMed 28176834.
# B1: Tudor domain-containing protein 3 (Homo sapiens), Q9H7E2-3 (parent)
# chain: MAQVAGAALSQAGWYLSDEGIEACTSSPDKVNVNDIILIALNTDLRTIGKKFLPSDINSGKVEKLEGPCVLQIQKIRNVAAPKDNEESQAAPRMLRLQMTDGHISCTAVEFSYMSKISLNTPPGTKVKLSGIVDIKNGFLLLNDSNTTVLGGEVEHLIEKWELQRSLSKHNRSNIGTEGGPPPFVPFGQKCVSHVQVDSRELDRRKTLQVTMPVKPTNDNDEFEKQRTAAIAEVAKSKETKTFGGGGGGARSNLNMNAAGNRNREVLQKEKSTKSEGKHEGVYRELVDEKALKHITEMGFSKEASRQALMDNGNNLEAALNVLLTSNKQKPVMGPPLRGRGKGRGRIRSEDEEDLGNARPSAPSTLFDFLESKMGTLNVEEPKSQPQQLHQGQYRSSNTEQNGVKDNNHLRHPPRNDTRQPRNEKPPRFQRDSQNSKSVLEGSGLPRNRGSERPSTSSVSEVWAEDRIKCDRPYSRYDRTKDTSYPLGSQHSDGAFKKRDNSMQSRSGKGPSFAEAKENPLPQGSVDYNNQKRGKRESQTSIPDYFYDRKSQTINNEAFSGIKIEKHFNVNTDYQNPVRSNSFIGVPNGEVEMPLKGRRIGPIKPAGPVTAVPCDDKIFYNSGPKRRSGPIKPEKILESSIPMEYAKMWKPGDECFALYWEDNKFYRAEVEALHSSGMTAVVKFIDYGNYEEVLLSNIKPIQTEAWEEEGTYDQTLEFRRGGDGQPRRSTRPTQQFYQPPRARN
# partner: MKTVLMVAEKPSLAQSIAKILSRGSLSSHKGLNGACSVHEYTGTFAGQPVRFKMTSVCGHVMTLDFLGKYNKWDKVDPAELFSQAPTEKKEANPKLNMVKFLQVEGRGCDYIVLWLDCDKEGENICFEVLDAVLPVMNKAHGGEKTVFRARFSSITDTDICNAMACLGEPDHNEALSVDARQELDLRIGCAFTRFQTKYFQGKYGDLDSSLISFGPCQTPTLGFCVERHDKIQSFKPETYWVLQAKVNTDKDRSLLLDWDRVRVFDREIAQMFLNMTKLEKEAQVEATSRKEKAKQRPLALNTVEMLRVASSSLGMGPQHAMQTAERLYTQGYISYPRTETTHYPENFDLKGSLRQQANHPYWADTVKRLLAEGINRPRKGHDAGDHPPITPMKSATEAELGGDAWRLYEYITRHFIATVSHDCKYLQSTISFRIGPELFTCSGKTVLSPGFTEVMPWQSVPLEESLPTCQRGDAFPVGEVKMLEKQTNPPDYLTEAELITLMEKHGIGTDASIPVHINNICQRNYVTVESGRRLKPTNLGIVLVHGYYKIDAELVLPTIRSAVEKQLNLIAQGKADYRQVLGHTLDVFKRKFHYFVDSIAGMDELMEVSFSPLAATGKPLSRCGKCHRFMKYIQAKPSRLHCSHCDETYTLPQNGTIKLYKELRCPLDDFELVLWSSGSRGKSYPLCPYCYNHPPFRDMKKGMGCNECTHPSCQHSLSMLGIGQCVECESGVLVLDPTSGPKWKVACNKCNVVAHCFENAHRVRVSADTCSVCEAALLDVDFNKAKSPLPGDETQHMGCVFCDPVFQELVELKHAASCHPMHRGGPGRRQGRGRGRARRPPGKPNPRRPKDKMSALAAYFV
# B2: DNA topoisomerase 3-beta-1 (Homo sapiens), O95985 (parent)
# chain: B1 partner
# Variants of: B1
# Conditions: with top3b_human TOP3B, O95985
row,Variant,effect of a mutation on the interaction
1,P82S,with no effect
2,R96A,with no effect
3,R96M;F111Y,with no effect
4,F139V,with no effect
5,F139S,decreasing interaction strength
6,R96M;V109M,with no effect
7,L141S,with no effect
8,A80S;A81Q;A90K;A91P;P92S,with no effect
9,V109S;F111S,disrupting interaction strength
10,R96M;F111Y;F139V,with no effect
11,M94S,disrupting interaction strength
12,V79S,with no effect
13,R96M;V109M;F139V,with no effect
14,P92S,decreasing interaction strength
15,V79S;A80S;A81S;P82S,decreasing interaction strength
16,P92S;M94S,disrupting interaction strength
17,V109S,disrupting interaction strength
18,V109M,with no effect

# Next, values leading:
row,effect of a mutation on the interaction,Variant
1,with no effect,R96M
2,with no effect,F111S
3,with no effect,F111Y
4,with no effect,R96M;V109M;F111Y
5,decreasing interaction strength,V79S;P82S
6,with no effect,R96M;F139V
7,with no effect,V109M;F111Y;F139V
8,with no effect,A80S;A81S
9,disrupting interaction strength,F139S;L141S
10,decreasing interaction strength,R96M;V109M;F111Y;F139V

# Variants of: B2
# Conditions: with TDRD3, Q9H7E2-3
row,effect of a mutation on the interaction,Variant
1,with no effect,D266A
